Source: the Immune Epitope Database (IEDB)

Key:
HLA-B*44:02 = experiment: IEDB peptide-MHC binding, purified MHC/direct/fluorescence; filed as Kd, often an IC50 or EC50 that approximates it; ≥ and ≤ were set here for values at or beyond the usual limits of such assays
HLA-A*02:01 [1] = experiment: as above
HLA-B*07:02 [2] = experiment: as above
HLA-B*46:01 = experiment: as above
HLA-B*15:01 [3] = experiment: as above
HLA-A*24:02 = experiment: as above
HLA-A*03:01 [4] = experiment: as above
HLA-A*01:01 [5] = experiment: as above
HLA-A*26:01 = experiment: as above
HLA-B*08:01 [6] = experiment: as above
HLA-B*27:05 = experiment: as above
HLA-B*18:01 = experiment: as above
HLA-A*69:01 = experiment: as above
HLA-B*40:01 = experiment: as above
HLA-B*08:02 = experiment: as above
HLA-B*58:01 = experiment: as above
HLA-A*30:01 = experiment: IEDB peptide-MHC binding, purified MHC/competitive/fluorescence; filed as Kd, often an IC50 or EC50 that approximates it; ≥ and ≤ were set here for values at or beyond the usual limits of such assays; settings: source organism: Influenza A virus (A/X-31(H3N2))
HLA-B*57:01 = experiment: IEDB peptide-MHC binding, purified MHC/direct/fluorescence; filed as Kd, often an IC50 or EC50 that approximates it; ≥ and ≤ were set here for values at or beyond the usual limits of such assays; settings: source organism: Influenza A virus (A/chicken/Hubei/wm/1997(H5N1))
HLA-A*31:01 = experiment: as above
HLA-A*11:01 [7] = experiment: as above
HLA-B*48:01 = experiment: as above; settings: source organism: Influenza A virus (A/chicken/Hubei/wm/1997(H5N1))
HLA-A*26:02 = experiment: as above
HLA-B*15:17 = experiment: as above; settings: source organism: Influenza A virus (A/chicken/Hubei/wm/1997(H5N1))
HLA-A*02:01 [8] = experiment: IEDB peptide-MHC binding, purified MHC/competitive/fluorescence; ≥ and ≤ were set here for values at or beyond the usual limits of such assays
HLA-A*01:01 [9] = experiment: as above
HLA-A*11:01 [10] = experiment: as above
HLA-A*68:02 = experiment: IEDB peptide-MHC binding, purified MHC/competitive/radioactivity; filed as Kd, often an IC50 or EC50 that approximates it; ≥ and ≤ were set here for values at or beyond the usual limits of such assays; settings: source organism: Trypanosoma cruzi
HLA-A*02:03 = experiment: as above; settings: source organism: Trypanosoma cruzi
HLA-A*02:06 = experiment: as above; settings: source organism: Trypanosoma cruzi
HLA-A*02:02 = experiment: as above; settings: source organism: Trypanosoma cruzi
HLA-A*02:01 [11] = experiment: IEDB peptide-MHC binding, purified MHC/competitive/radioactivity; ≥ and ≤ were set here for values at or beyond the usual limits of such assays; settings: source organism: Trypanosoma cruzi
HLA-B*15:01 [12] = experiment: IEDB peptide-MHC binding, purified MHC/competitive/fluorescence; ≥ and ≤ were set here for values at or beyond the usual limits of such assays
HLA-A*03:01 [13] = experiment: as above; settings: source organism: Variola virus
HLA-B*07:02 [14] = experiment: IEDB peptide-MHC binding, purified MHC/competitive/fluorescence; filed as Kd, often an IC50 or EC50 that approximates it; ≥ and ≤ were set here for values at or beyond the usual limits of such assays; settings: source organism: Yersinia mollaretii ATCC 43969
HLA-B*08:01 [15] = experiment: as above; settings: source organism: Yersinia mollaretii ATCC 43969
HLA-B*51:01 = experiment: as above; settings: source organism: Yersinia mollaretii ATCC 43969
[16] = source organism: Influenza A virus (A/swine/Korea/S190/2004(H9N2))
[17] = source organism: Influenza A virus (A/Puerto Rico/8/34/Mount Sinai(H1N1))
[18] = source organism: Influenza A virus H3N2
[19] = source organism: Influenza A virus (A/chicken/Hubei/wm/1997(H5N1))
[20] = source organism: Zaire ebolavirus
[21] = source organism: Vaccinia virus WR
[22] = source organism: Cryptosporidium parvum
[23] = source organism: Escherichia coli O157:H7
[24] = source organism: Influenza A virus (A/Hong Kong/485/1997(H5N1))
[25] = source organism: Influenza A virus (A/chicken/Vietnam/5/2003(H5N1))
[26] = source organism: Influenza A virus(A/swine/Henan/3/2004(H9N2))

ATTHSWIPK showed a Kd (HLA-B*44:02; [16]) of no less than 20 µM, a Kd (HLA-A*02:01 [1]; [16]) of no less than 20 µM and a Kd (HLA-B*07:02 [2]; [16]) of no less than 20 µM. For the same sequence, the Kd (HLA-B*46:01; [16]) was no less than 20 µM, the Kd (HLA-B*15:01 [3]; [16]) was no less than 20 µM and the Kd (HLA-A*24:02; [16]) was no less than 20 µM. For the same sequence, the Kd (HLA-A*03:01 [4]; [17]) was 0.826 µM, the Kd (HLA-A*01:01 [5]; [16]) was no less than 20 µM and the Kd (HLA-A*26:01; [18]) was no less than 20 µM. It also gave a Kd (HLA-B*08:01 [6]; [16]) of no less than 20 µM, a Kd (HLA-B*27:05; [16]) of no less than 20 µM and a Kd (HLA-B*18:01; [16]) of no less than 20 µM. It also gave a Kd (HLA-A*69:01; [16]) of no less than 20 µM, a Kd (HLA-B*40:01; [16]) of no less than 20 µM and a Kd (HLA-B*08:02; [18]) of no less than 20 µM. The Kd (HLA-B*58:01; [16]) was no less than 20 µM.
In the case of EKPKFLPDL, the Kd (HLA-A*30:01) is reported as no less than 20 µM, the Kd (HLA-B*57:01) is reported as no less than 20 µM and the Kd (HLA-A*31:01; [19]) is reported as no less than 20 µM. It also gave a Kd (HLA-A*02:01 [1]; [19]) of no less than 20 µM, a Kd (HLA-B*07:02 [2]; [19]) of no less than 20 µM and a Kd (HLA-B*46:01; [19]) of no less than 20 µM. It also gave a Kd (HLA-A*11:01 [7]; [19]) of no less than 20 µM, a Kd (HLA-B*15:01 [3]; [19]) of no less than 20 µM and a Kd (HLA-B*48:01) of no less than 20 µM. The Kd (HLA-A*03:01 [4]; [19]) was no less than 20 µM, the Kd (HLA-A*01:01 [5]; [19]) was no less than 20 µM and the Kd (HLA-A*26:01; [19]) was no less than 20 µM. For the same sequence, the Kd (HLA-B*27:05; [19]) was no less than 20 µM, the Kd (HLA-B*18:01; [19]) was no less than 20 µM and the Kd (HLA-A*26:02; source organism: Influenza A virus (A/Taiwan/2/2006(H1N1))) was no less than 20 µM. The Kd (HLA-A*69:01; [19]) was no less than 20 µM, the Kd (HLA-B*40:01; [19]) was no less than 20 µM and the Kd (HLA-B*15:17) was no less than 20 µM. For the same sequence, the Kd (HLA-B*58:01; [19]) was no less than 20 µM.
ETVEWALKF was tested, and the Kd (HLA-A*26:01; source organism: Orthohantavirus dobravaense) was 0.0032 µM and the Kd (HLA-A*26:02; source organism: Kurkino virus) was no more than 0.001 µM.
With FCIKVLCPY the Kd (HLA-A*26:02; source organism: West Nile virus SPU116/89) was 0.096 µM.
FLDPATTTS showed an IC50 (HLA-A*02:01 [8]; [20]) of 1.78 µM and an IC50 (HLA-A*01:01 [9]; [20]) of no less than 145 µM.
With FTEQAFYTR the IC50 (HLA-A*11:01 [10]; [21]) was 17.7 µM and the IC50 (HLA-A*01:01 [9]; [21]) was 26.3 µM.
IINAHRIPK was tested, and the Kd (HLA-A*31:01; [22]) was 0.0316 µM, the Kd (HLA-B*44:02; [22]) was no less than 20 µM and the Kd (HLA-B*07:02 [2]; [22]) was no less than 20 µM. For the same sequence, the Kd (HLA-A*11:01 [7]; [22]) was 0.0267 µM, the Kd (HLA-B*15:01 [3]; [22]) was no less than 20 µM and the Kd (HLA-A*24:02; [22]) was no less than 20 µM. It also gave a Kd (HLA-A*03:01 [4]; [22]) of 0.0825 µM, a Kd (HLA-A*01:01 [5]; [22]) of no less than 20 µM and a Kd (HLA-A*26:01; source organism: Cryptosporidium parvum Iowa II) of no less than 20 µM. It also gave a Kd (HLA-B*27:05; [22]) of no less than 20 µM, a Kd (HLA-B*18:01; [22]) of no less than 20 µM and a Kd (HLA-A*69:01; [22]) of no less than 20 µM. The Kd (HLA-B*40:01; [22]) was no less than 20 µM and the Kd (HLA-B*58:01; [22]) was no less than 20 µM.
LLGLWGTAAL gave a Kd (HLA-A*68:02) of 8.19 µM, a Kd (HLA-A*02:03) of 0.00721 µM and a Kd (HLA-A*02:06) of 1.26 µM. The Kd (HLA-A*02:02) was 0.00193 µM and the IC50 (HLA-A*02:01 [11]) was 0.499 µM.
LLQLNETIY gave an IC50 (HLA-A*02:01 [8]; [20]) of no less than 78.3 µM, an IC50 (HLA-B*15:01 [12]; [20]) of 3.16 µM and an IC50 (HLA-A*01:01 [9]; [20]) of no less than 88.9 µM.
For LSLTKLFSY, the IC50 (HLA-A*02:01 [8]; source organism: Variola virus) was no less than 103 µM, the IC50 (HLA-A*11:01 [10]; source organism: Variola virus) was 4.13 µM and the IC50 (HLA-B*15:01 [12]; source organism: Variola virus) was 15.5 µM. It also gave an IC50 (HLA-A*03:01 [13]) of 18.9 µM and an IC50 (HLA-A*01:01 [9]; source organism: Variola virus) of 3.71 µM.
MPMYAIHKV gave a Kd (HLA-B*07:02 [14]) of 0.0267 µM, a Kd (HLA-B*08:01 [15]) of 1.87 µM and a Kd (HLA-B*51:01) of 1.14 µM.
PILPKLFIL gave a Kd (HLA-B*44:02; [23]) of no less than 20 µM, a Kd (HLA-A*02:01 [1]; [23]) of 5.7 µM and a Kd (HLA-B*07:02 [2]; [23]) of no less than 20 µM. The Kd (HLA-B*46:01; [23]) was no less than 20 µM, the Kd (HLA-B*15:01 [3]; [23]) was no less than 20 µM and the Kd (HLA-A*24:02; [23]) was no less than 20 µM. For the same sequence, the Kd (HLA-A*03:01 [4]; [23]) was no less than 20 µM, the Kd (HLA-A*01:01 [5]; [23]) was no less than 20 µM and the Kd (HLA-B*27:05; [23]) was no less than 20 µM. It also gave a Kd (HLA-B*18:01; [23]) of no less than 20 µM, a Kd (HLA-B*40:01; [23]) of no less than 20 µM and a Kd (HLA-B*58:01; [23]) of no less than 20 µM.
QMRDVLGTF showed a Kd (HLA-A*31:01; [24]) of no less than 20 µM, a Kd (HLA-B*44:02; [24]) of no less than 20 µM and a Kd (HLA-A*02:01 [1]; [24]) of no less than 20 µM. The Kd (HLA-B*07:02 [2]; [17]) was 0.381 µM, the Kd (HLA-A*11:01 [7]; [24]) was no less than 20 µM and the Kd (HLA-B*15:01 [3]; [17]) was 0.066 µM. The Kd (HLA-A*24:02; [24]) was no less than 20 µM, the Kd (HLA-A*03:01 [4]; [24]) was no less than 20 µM and the Kd (HLA-A*01:01 [5]; [24]) was no less than 20 µM. For the same sequence, the Kd (HLA-A*26:01; source organism: Influenza A virus (A/Hong Kong/507/97(H5N1))) was 0.135 µM, the Kd (HLA-B*27:05; [24]) was no less than 20 µM and the Kd (HLA-B*40:01; [24]) was no less than 20 µM. It also gave a Kd (HLA-B*58:01; [24]) of no less than 20 µM.
RVDKLTQGR was tested, and the Kd (HLA-B*44:02; [25]) was no less than 20 µM, the Kd (HLA-A*02:01 [1]; [25]) was no less than 20 µM and the Kd (HLA-B*07:02 [2]; [25]) was no less than 20 µM. For the same sequence, the Kd (HLA-B*46:01; [25]) was no less than 20 µM, the Kd (HLA-B*15:01 [3]; [25]) was no less than 20 µM and the Kd (HLA-A*24:02; [25]) was no less than 20 µM. The Kd (HLA-A*03:01 [4]; [17]) was no less than 10 µM, the Kd (HLA-A*01:01 [5]; [25]) was no less than 20 µM and the Kd (HLA-A*26:01; [26]) was no less than 20 µM. For the same sequence, the Kd (HLA-B*08:01 [6]; [25]) was no less than 20 µM, the Kd (HLA-B*27:05; [25]) was no less than 20 µM and the Kd (HLA-B*18:01; [25]) was no less than 20 µM. It also gave a Kd (HLA-A*69:01; [25]) of no less than 20 µM, a Kd (HLA-B*40:01; [25]) of no less than 20 µM and a Kd (HLA-B*08:02; [26]) of no less than 20 µM. It also gave a Kd (HLA-B*58:01; [25]) of no less than 20 µM.
